Experimental data reported in PMC3536884.

Biological target: C9-tagged CCR5 (human) (UniProt P51681)
Experiment: SPR

UniProt P51681, sequence (P51681 whole entry): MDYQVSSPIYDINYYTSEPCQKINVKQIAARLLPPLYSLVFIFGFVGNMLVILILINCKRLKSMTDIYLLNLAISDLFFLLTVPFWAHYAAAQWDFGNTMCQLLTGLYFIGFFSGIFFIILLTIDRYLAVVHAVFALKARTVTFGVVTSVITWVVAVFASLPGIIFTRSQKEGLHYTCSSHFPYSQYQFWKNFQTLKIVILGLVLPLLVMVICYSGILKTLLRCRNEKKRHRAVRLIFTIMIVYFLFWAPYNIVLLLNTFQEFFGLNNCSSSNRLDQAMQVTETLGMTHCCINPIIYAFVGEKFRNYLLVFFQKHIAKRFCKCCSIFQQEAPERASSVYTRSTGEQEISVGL

With “LukE (leukotoxin ED subunit E), His-tagged (natural protein)” the Kd was 39.6 nM.
